The source of these data is patent US20210147523A1 (TEIJIN PHARMA, published 2021).

A value given as a limit tells only on which side of the number the result lay.

The target in one assay is T1, human SPNS2 I129A mutant (human, UniProt Q8IVW8 1-549).
T1 sequence: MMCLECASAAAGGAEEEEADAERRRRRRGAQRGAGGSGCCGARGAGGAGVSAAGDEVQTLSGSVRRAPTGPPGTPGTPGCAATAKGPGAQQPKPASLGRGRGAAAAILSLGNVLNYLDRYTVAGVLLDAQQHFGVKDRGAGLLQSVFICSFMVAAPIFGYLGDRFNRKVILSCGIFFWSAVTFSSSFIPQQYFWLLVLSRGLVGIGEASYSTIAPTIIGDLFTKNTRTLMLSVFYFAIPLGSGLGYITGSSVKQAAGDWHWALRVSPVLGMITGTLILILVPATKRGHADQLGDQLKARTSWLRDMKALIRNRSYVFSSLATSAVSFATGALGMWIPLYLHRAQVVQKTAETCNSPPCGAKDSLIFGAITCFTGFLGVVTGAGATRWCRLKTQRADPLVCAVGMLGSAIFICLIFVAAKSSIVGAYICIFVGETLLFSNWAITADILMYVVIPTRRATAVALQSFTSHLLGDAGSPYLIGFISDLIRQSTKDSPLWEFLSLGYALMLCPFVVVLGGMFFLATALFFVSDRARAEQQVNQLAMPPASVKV
The assay can be described thus: flow cytometry. (In flow cytometry, cells or beads pass a laser one at a time.)

Another assay deals with T2, human SPNS2 L196A mutant (human, UniProt Q8IVW8 1-549).
T2 sequence: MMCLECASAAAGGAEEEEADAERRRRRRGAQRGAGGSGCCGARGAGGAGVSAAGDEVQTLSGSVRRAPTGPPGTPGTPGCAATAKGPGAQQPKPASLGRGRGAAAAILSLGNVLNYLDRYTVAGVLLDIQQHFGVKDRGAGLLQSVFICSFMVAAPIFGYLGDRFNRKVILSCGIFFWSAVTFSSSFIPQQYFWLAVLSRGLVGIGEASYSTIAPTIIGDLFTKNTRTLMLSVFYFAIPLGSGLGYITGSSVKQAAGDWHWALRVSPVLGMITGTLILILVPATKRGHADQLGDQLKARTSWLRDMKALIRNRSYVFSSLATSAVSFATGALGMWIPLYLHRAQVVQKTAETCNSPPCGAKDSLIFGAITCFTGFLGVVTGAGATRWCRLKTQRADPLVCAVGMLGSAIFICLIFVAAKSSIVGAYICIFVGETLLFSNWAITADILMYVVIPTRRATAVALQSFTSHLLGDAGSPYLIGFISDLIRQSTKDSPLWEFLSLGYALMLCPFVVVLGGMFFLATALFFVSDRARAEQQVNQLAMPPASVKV
The assay can be described thus: flow cytometry.

B1: 65-0810G (antibody, IgG2b, V domains shown)
VH: EVHLVESGGGLVQPGRSMKLSCTASGFTFNNYYMAWVRQAPTKGLEWVASISTGGGYTYYRDSVKGRFTISRDNTGNTLYLQMDSLRSEDTATYYCARCWELPYWGQGVMVTVSS
VL: QFVLTQPNSVSTNLGSTVKLSCRRSSGNIGNNYVNWYRQHEGRSPTTMIYRDDTRPDGVPNRFSGSIDRSSNSALLTINNVRPEDEAYYFCQSYSGSIYIFGGGTKLTVL
Take B1: the “binding ratio vs native type” value with human SPNS2 I129A mutant and with human SPNS2 L196A mutant was under 0.5 ratio throughout.
